Experimental data reported in article doi:10.1101/2021.10.11.463801, “JIP3 regulates bi-directional organelle transport in neurons through its interaction with dynein and kinesin-1” (bioRxiv, 2021).

Legend:
[1] = target: the molecule itself; experiment: AUC; sedimentation velocity, 42'000 rpm, 20 °C; 50 mM HEPES, 100 mM NaCl, 0.5 mM TCEP, pH 7.5; c(S) by SEDFIT
mouse JIP3[186-505] = target: T1, mouse JIP3[186-505] (mouse, UniProt Q9ESN9-5 186-505); experiment: pull-down; GST-tagged bait on glutathione agarose resin; purified recombinant proteins mixed in 50 mM HEPES, 100 mM NaCl, 5 mM DTT, pH 7.5; 1 h at 4 °C; eluted with 15 mM reduced L-glutathione; SDS-PAGE with Coomassie Blue or immunoblot; details: both partners purified
T1 construct: mouse JIP3, residues 186-505 (holds the leucine zipper); numbers count on UniProt Q9ESN9-5; also called JIP3[186-505] wild type; source: E. coli (BL21, BL21-CodonPlus-RIL or Rosetta), purified
T1 sequence (looked up): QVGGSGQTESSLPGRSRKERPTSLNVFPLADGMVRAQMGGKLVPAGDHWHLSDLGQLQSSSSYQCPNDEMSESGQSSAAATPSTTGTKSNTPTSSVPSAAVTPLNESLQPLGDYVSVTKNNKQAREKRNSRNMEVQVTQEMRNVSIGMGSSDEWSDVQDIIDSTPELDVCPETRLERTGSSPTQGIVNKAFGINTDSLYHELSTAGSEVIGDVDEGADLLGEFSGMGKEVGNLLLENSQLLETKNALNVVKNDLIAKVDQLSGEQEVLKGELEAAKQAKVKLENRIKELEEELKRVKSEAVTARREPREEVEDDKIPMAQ

Binder | stoichiometry N [1] | binding result (mouse JIP3[186-505])
JIP3[1-108] (domain or fragment, human, UniProt Q9UPT6-1 1-108, looked up, UniProt Q9UPT6-1; Dimer by AUC; also called JIP3-RH1; RH1 domain of JIP3; source: E. coli (BL21, BL21-CodonPlus-RIL or Rosetta), purified) MMEIQMDEGGGVVVYQDDYCSGSVMSERVSGLAGSIYREFERLIHCYDEEVVKELMPLVVNVLENLDSVLSENQEHEVELELLREDNEQLLTQYEREKALRRQAEEKF | 2 | –
JIP4[1-103] (domain or fragment, human, UniProt O60271-1 1-103, looked up, human JIP4, residues 1-103 (RH1 domain); UniProt O60271-1; Dimer by AUC; also called JIP4-RH1; RH1 domain of JIP4; source: E. coli (BL21, BL21-CodonPlus-RIL or Rosetta), purified) MELEDGVVYQEEPGGSGAVMSERVSGLAGSIYREFERLIGRYDEEVVKELMPLVVAVLENLDSVFAQDQEHQVELELLRDDNEQLITQYEREKALRKHAEEKF | 2 | –
JIP3[1-108] V60Q (domain or fragment, human, UniProt Q9UPT6-1 1-108, looked up, human JIP3, residues 1-108 (RH1 domain) with V60Q; UniProt Q9UPT6-1; Dimer by AUC; also called JIP3-RH1 V60Q; source: E. coli (BL21, BL21-CodonPlus-RIL or Rosetta), purified) MMEIQMDEGGGVVVYQDDYCSGSVMSERVSGLAGSIYREFERLIHCYDEEVVKELMPLVQNVLENLDSVLSENQEHEVELELLREDNEQLLTQYEREKALRRQAEEKF | 2 | –
GST-tagged KLC1[185-501] (domain or fragment, human, UniProt Q07866-1 185-501, looked up, human kinesin light chain 1 (KLC1), residues 185-501 (TPR domain); UniProt Q07866-1; also called KLC1 fragment; KLC1 TPR domain; source: E. coli (BL21, BL21-CodonPlus-RIL or Rosetta), purified; not shown: GST, N-terminal, kept) DDPGQGIQQQHSSAAAAAQQGGYEIPARLRTLHNLVIQYASQGRYEVAVPLCKQALEDLEKTSGHDHPDVATMLNILALVYRDQNKYKDAANLLNDALAIREKTLGKDHPAVAATLNNLAVLYGKRGKYKEAEPLCKRALEIREKVLGKDHPDVAKQLNNLALLCQNQGKYEEVEYYYQRALEIYQTKLGPDDPNVAKTKNNLASCYLKQGKFKQAETLYKEILTRAHEREFGSVDDENKPIWMHAEEREECKGKQKDGTSFGEYGGWYKACKVDSPTVTTTLKNLGALYRRQGKFEAAETLEEAAMRSRKQGLDNV | – | binds
